Where two headings read alike, the source gives them in different places. Values belong to the molecule of their own block, whether it stands above or below them.
Key:
rabbit anti-β2GPI = experiment: Direct binding ELISA, nickel chelate-coated wells, rabbit antibody; details: O.D. at 550 nm
Protocol: (§1) Nickel Chelate-coated microwell plates (NCP 010 00 Xenopore Corp. 374 Midland Ave. Saddle Brook, N.J. USA) were coated with 50 μl of serial dilutions of the various recombinant β2GPI, in PBS, at room temperature for 2 hours. The plates were washed three times with PBS and blocked with 75 μl of a 1% gelatin (Sigma #G-2500) in PBS for one hour room temperature. […] The plates were washed three times with PBS, 50 μl of alkaline phosphatase conjugated anti-immunoglobulin (anti-human IgG, gamma chain specific, Zymed #62-8422) or anti-rabbit IgG (Zymed #62-6122) diluted appropriately in 1% gelatin was added and incubated at 37° C. for one hour. The plates were washed three times with PBS, 50 μl of alkaline phosphatase PPMP chromogenic substrate solution was added and incubated for 30 minutes at room temperature. The optical density, at 550 nm, was determined by reading the plates in a microplate autoreader (Bio-Teck Instruments, model EL311).
(§2) Seven to nine different recombinant β2GPI mutant proteins were examined to determine if they could support the direct binding of affinity purified β2GPI-dependent antiphospholipid antibody preparations in the absence of anionic phospholipid. All recombinant mutant β2GPI were assayed with affinity purified β2GPI-dependent antiphospholipid antibody preparations from 11 different patients. Each mutant recombinant β2GPI protein was tested, in a dose dependent fashion and GST-6his was included as a negative control. The recombinant mutant β2GPI proteins were bound to nickel coated microtiter plates via their 6-his tail. All recombinant mutant β2GPI proteins tested bound rabbit anti-β2GPI showing that they were assessable by antibody (FIG. 5).

[1] = system: affinity purified β2GPI-dependent antiphospholipid antibody; experiment: Competitive inhibition ELISA: recombinant β2GPI proteins compete for antibody binding to coated full length recombinant β2GPI; parameters: species or system human; details: for IC50: read-out: 50% (concentration to give 50% inhibition)
Protocol: Microtiter plates (MaxiSorp™, Nalge Nunc International, Denmark) were coated with 50 μl of full length recombinant β2GPI at 10 μg/ml in 0.1 M bicarbonate, pH 9.5, incubated overnight at 4° C., washed three times with 0.15 M PBS, pH 7.2, and blocked for one hour at room temperature with 75 μl of 2% Non-fat Dried Milk (Carnation, 2% NFDM). Test inhibitors were diluted in 2% NFDM and 25 μl of each dilution was added to coated wells. Affinity purified β2GPI-dependent antiphospholipid antibody was diluted in 2% NFDM and 25 μl, of a constant concentration, was added to the wells, including a group of wells that had no inhibitor, which acted as the positive controls. The contents of the wells were mixed and the plates were incubated at 37° C. for one hour. The plates were washed three times with PBS, 50 μl of alkaline phosphatase conjugated anti-human IgG, gamma chain specific, (Zymed #62-8422) diluted appropriately in 2% NFDM was added and incubated at 37° C. for one hour. The plates were washed three times with PBS, 50 μl of alkaline phosphatase PPMP chromogenic substrate solution was added and incubated for 30 minutes, at room temperature. The Optical Density, at 550 nm, was determined by reading the plates in a microplate autoreader (Bio-Teck Instruments, model EL3 11). The percent inhibition was determined by dividing the OD550 obtained in the presence of inhibitor by the mean OD550 obtained from the wells without inhibitor and then multiplying by 100 (more particularly, [mean A550 obtained from control wells without inhibitor less A550 of background] minus [A550 obtained in presence of inhibitor less A550 of background] divided by [mean A550 obtained from control wells without inhibitor less A550 of background] times 100).
Seven to nine different recombinant β2GPI mutant proteins were used to determine the antigenic specificity of affinity purified β2GPI-dependent antiphospholipid antibody preparations from 13 different patients. Each mutant recombinant β2GPI protein was tested, in a dose dependent fashion, for its ability to inhibit affinity purified β2GPI-dependent antiphospholipid antibody from binding to full length recombinant β2GPI. The following values were also observed for domain 1 only recombinant protein (1 - - - -; see Table 2 for designations): […]

[2] = system: affinity purified β2GPI-dependent antiphospholipid antibody; experiment: Direct binding ELISA, nickel chelate-coated wells charged with recombinant β2GPI proteins (no cardiolipin); parameters: species or system human; details: O.D. at 550 nm
Protocol: as §1, §2

[3] = system: antiphospholipid antibody in plasma from patient 6501; experiment: Competitive antibody binding ELISA with patient plasma on β2GPI coated plates; parameters: species or system human; details: plasma patient 6501, 1:200
Protocol: Nunc Maxisorp microplates (Nalge Nunc International, Denmark) were coated with 100 μL/well of β2GPI at 2.5 μg/mL in PBS, incubated for 2 hours at room temperature, and blocked for 2 hours at room temperature with 250 μl/well of 2% nonfat milk with […] (Sigma Chemical Co.). […] After incubation for one hour at room temperature the plates were washed 5× with TBS. To each well was added 100 μL of alkaline phosphatase-conjugated anti-human IgG, gamma chain specific (Zymed) diluted 1:1000 in 2% nonfat milk with 0.4% Tween-80. After one hour at room temperature the plates were washed 5× with TBS. To each well was added 100 μl PPMP chromogenic substrate solution for color development at room temperature. Optical absorbance per well was determined at A550nm in a commercial microplate reader (Bio-Tek Instruments EL3 11).

Max (maximum inhibition observed at concentrations tested) ([1]; Ab 6203): 10% | IC50 ([1]; Ab 6203): > 40 µM | Max (maximum inhibition observed at concentrations tested) ([1]; Ab 6501): 15% | IC50 ([1]; Ab 6501): > 40 µM | Max (maximum inhibition observed at concentrations tested) ([1]; Ab 6509): 20% | IC50 ([1]; Ab 6509): > 5 µM | Max (maximum inhibition observed at concentrations tested) ([1]; Ab 6626): 15% | IC50 ([1]; Ab 6626): > 40 µM | Max (maximum inhibition observed at concentrations tested) ([1]; Ab 6632): 20% | IC50 ([1]; Ab 6632): > 40 µM | Max (maximum inhibition observed at concentrations tested) ([1]; Ab 6641): 20% | IC50 ([1]; Ab 6641): > 5 µM | Max (maximum inhibition observed at concentrations tested) ([1]; Ab 6644): 10% | IC50 ([1]; Ab 6644): > 40 µM | Max (maximum inhibition observed at concentrations tested) ([1]; Ab 6652): 20% | IC50 ([1]; Ab 6652): > 5 µM | Max (maximum inhibition observed at concentrations tested) ([1]; Ab 6701): 15% | IC50 ([1]; Ab 6701): > 5 µM | Max (maximum inhibition observed at concentrations tested) ([1]; Ab 7008): 20% | IC50 ([1]; Ab 7008): > 40 µM | Max (maximum inhibition observed at concentrations tested) ([1]; Ab 7015): 10% | IC50 ([1]; Ab 7015): > 40 µM | Max (maximum inhibition observed at concentrations tested) ([1]; Ab 7101): 5% | IC50 ([1]; Ab 7101): > 40 µM | Max (maximum inhibition observed at concentrations tested) ([1]; Ab 7104): 5% | IC50 ([1]; Ab 7104): > 40 µM
B1: ---45: recombinant β2GPI deletion mutant with domains 4, 5 (protein)
chain: GREVKCPFPSRPDNGFVNYPAKPTLYYKDKATFGCHDGYSLDGPEEIECTKLGNWSAMPSCKASCKLPVKKATVVYQGERVKIQEKFKNGMLHGDKVSFFCKNKEKKCSYTEDAQCIDGTIEVPKCFKEHSSLAFWKTDASDVKPCGHHHHHH
Maximum O.D. (rabbit anti-β2GPI): 1.941 | Maximum O.D. ([2]; Ab 6203): 0.142 | Maximum O.D. ([2]; Ab 6501): 0.086 | Maximum O.D. ([2]; Ab 6626): 0.086 | Maximum O.D. ([2]; Ab 6632): 0.000 | Maximum O.D. ([2]; Ab 6641): 0.112 | Maximum O.D. ([2]; Ab 6652): 0.013 | Maximum O.D. ([2]; Ab 6701): 0.000 | Maximum O.D. ([2]; Ab 7008): 0.030 | Maximum O.D. ([2]; Ab 7015): 0.167 | Maximum O.D. ([2]; Ab 7101): 0.167

competition for antiphospholipid antibody binding to β2GPI [3]: no such competition
B2: Reduced and alkylated domain 1: β2GPI domain 1 polypeptide that had been reduced and alkylated, negative control (protein)
chain: GRTCPKPDDLPFSTVVPLKTFYEPGEEITYSCKPGYVSRGGMRKFICPLTGLWPINTLKCTPRV
modifications: also: reduced and alkylated cysteines, alkylating agent not given here
notes: β2GPI domain 1 polypeptide that had been reduced and alkylated, negative control

— patent publication US6858210B1, “Therapeutic and diagnostic domain 1 β2GPI polypeptides and methods of using same” (La Jolla Pharmaceutical Co., priority 1998, dated 2005)
